Laboratory results taken from article PMC7749166 (Communications Biology, 2020).

Tested on: C5aR∆Tyr
Experiment: FD-/FV-based AFM dynamic force spectroscopy vs Tyr mutant (Y11F, Y14F)
Assay type: binding, human
Conditions: C5a tip (probes effector site), FNdY fit
Excerpt: Finally, to obtain the full picture of the binding mechanism between C5a and its receptor, we also investigated the binding interaction between the C-terminal segment of C5a and the effector site. To achieve this, we abolished the interaction that the rigid core of C5a establishes with sulfonated residues at the binding site, so the C5aR∆Tyr mutant with mutation sites Y11F and Y14F was generated. The lack of sulfonation on the C5aR∆Tyr mutant was validated by western blot using anti-sulfated tyrosine antibodies (Fig. S1). The interaction between the C5a ligand and C5aR∆Tyr was measured and the dependence of the rupture force with the loading rate was plotted in the DFS graph in Fig. 5d. We extracted an equilibrium force Feq of 32 ± 5 pN, a binding equilibrium free energy ΔGbu of −4.7 ± 1.4 kcal mol^−1, and a receptor–ligand half-residence time, τ0.5 of 0.6 ms.
The reconstituted C5aR sample solution (either wt-C5aR or mutants) was 20-fold diluted in fusion buffer solution (20 mM HEPES, 300 mM NaCl, and 25 mM MgCl2) and adsorbed on freshly cleaved mica for 15 min. After rinsing with imaging buffer (20 mM HEPES and 300 mM NaCl) the sample was transferred to the AFM.
Rectangular Si3N4 AFM cantilevers with silicon tips (BioLever mini, Bruker) were first cleaned with chloroform for 10 min, rinsed with ethanol, N2 dried, and then cleaned for 15 min in an ultraviolet radiation and ozone cleaner (UV-O, Jetlight, CA, USA). For the aminofunctionalization, the cantilevers were immersed in an ethanolamine solution (3.3 g ethanolamine in 6.6 ml DMSO) overnight and then rinsed in DMSO (3 × 1 min) and ethanol (3 × 1 min), followed by N2 drying. This was followed by the N-hydroxysuccinimide (NHS)-PEG27-acetal linker attachment. A 1 mg portion of the NHS-PEG27-acetal linker (JKU, Linz, Austria) was diluted in 0.5 ml chloroform with 30 µl triethylamine and the cantilevers were immersed in this solution for 2 h. […]

B1: C5a: C5a, a large 74-amino acid glycoprotein; endogenous ligand of C5aR (His6-tag at N-terminal end for AFM tips) (protein)
chain: TLQKKIEEIAAKYKHSVVKKCCYDGACVNNDETCEQRAARISLGPRCIKAFTECCVVASQLRANISHKDMQLGR
modifications: left off: His6, N-terminal, kept
residence time τ0.5: 0.6 ms | binding equilibrium free energy ΔGbu (± s.e.m.): -4.7 ± 1.4 kcal/mol | equilibrium force Feq (± s.e.m.): 32 ± 5 pN
